Reference: paper PMC6777938, “Evolutionary emergence of Hairless as a novel component of the Notch signaling pathway” (eLife, 2019)

Target: T1, GST-tagged Drosophila Su(H) (Drosophila melanogaster, UniProt P28159 1-594)
T1 construct: Suppressor of Hairless [Su(H)], Drosophila melanogaster; construct GST-Su(H) pGEX-KG of Bailey and Posakony, 1995; also called GST-Su(H); Suppressor of Hairless; source: E. coli, isolated, on Sepharose beads
Experiment: pull-down; in vitro; Sepharose beads bearing GST-Su(H) or only GST, His-tagged Hairless or S-CAP segments in solution; Ptep S-CAP also at 10X input
Conditions: both partners purified

T1 sequence (P28159 whole entry): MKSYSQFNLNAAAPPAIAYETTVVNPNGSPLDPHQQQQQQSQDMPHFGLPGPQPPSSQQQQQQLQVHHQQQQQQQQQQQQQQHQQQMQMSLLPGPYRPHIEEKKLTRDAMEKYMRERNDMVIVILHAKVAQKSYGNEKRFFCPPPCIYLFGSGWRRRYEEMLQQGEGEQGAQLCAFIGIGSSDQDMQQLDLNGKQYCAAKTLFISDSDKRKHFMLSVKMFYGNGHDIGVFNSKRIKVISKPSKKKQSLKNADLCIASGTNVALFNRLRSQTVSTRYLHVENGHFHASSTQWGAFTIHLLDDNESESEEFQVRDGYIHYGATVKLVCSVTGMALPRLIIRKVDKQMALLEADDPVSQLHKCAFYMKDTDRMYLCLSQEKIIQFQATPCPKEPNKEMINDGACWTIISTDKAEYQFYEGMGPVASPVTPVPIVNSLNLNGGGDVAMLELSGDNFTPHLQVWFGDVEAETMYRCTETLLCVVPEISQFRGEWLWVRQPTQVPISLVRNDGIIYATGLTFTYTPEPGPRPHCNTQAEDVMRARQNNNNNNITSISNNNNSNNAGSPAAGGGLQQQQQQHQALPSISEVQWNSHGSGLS

| Binder | binding result |
| --- | --- |
| His-tagged Parasteatoda tepidariorum S-CAP residues 233-432, wild type (domain or fragment, 200 residues, fits 233-432; Su(H)-Co-repressor Adaptor Protein (S-CAP), house spider Parasteatoda tepidariorum, residues 233-432 with the SBD-like motif; same vector and leader as m9; also called HIS-PtepSCAP233-432 WT; Ptep s-CAP233-432 WT; source: E. coli (codon-optimized for expression in E. coli, pRSET-C), isolated) TVNTEDPPKDSINFLDHSRVTDPCSAASETSLPQDVPATSTVGSLKFFLGGRLVLKLNAQQDGGSGNKCQWVQSNDLPKHSNHNKKDKHKKKFAPYSYSSSGTQKPLKKGDDTSAVPDCDPSGIKKPRLKEYETSENSALGLLLCSSSWTPPVADGQESIDVDDTSSKTSEGYISPILSNNSRTSKIDTIKHDFASNPNT | binds |
| His-tagged Drosophila melanogaster Hairless residues 192-389, wild type (domain or fragment, 198 residues, fits 192-389 and L235, F237, L245, L247, W258; the printed DNA starts with linker codons R-W-I-R before the insert; also called HIS-H192-389 WT; Dmel Hairless192-389 WT; source: E. coli (codon-optimized for expression in E. coli, pRSET-C), isolated) AVVAAAAGTAKIGKGSNSGGSFDMGRTPISTHGNNSWGGYGGRLQFFKDGKFILELARSKDGDKSGWVSVTRKTFRPPSAATSATVTPTSAVTTAYPKNENSTSLSFSDDNSSIQSSPWQRDQPWKQSRPRRGISKELSLFFHRPRNSTLGRAALRTAARKRRRPHEPLTTSEDQQPIFATAIKAENGDDTLKAEAAE | binds |
